From patent US20070178491, “Compositions and Methods for Synthesizing Nucleic Acids” (INVITROGEN CORPORATION, published 2007)

T1: AccuPrime protein (AccuPrime Protein I; MjaSSB, Mja RPA SSB) (Methanococcus jannaschii, UniProt Q58559 Q58559:1-645)
T1 sequence: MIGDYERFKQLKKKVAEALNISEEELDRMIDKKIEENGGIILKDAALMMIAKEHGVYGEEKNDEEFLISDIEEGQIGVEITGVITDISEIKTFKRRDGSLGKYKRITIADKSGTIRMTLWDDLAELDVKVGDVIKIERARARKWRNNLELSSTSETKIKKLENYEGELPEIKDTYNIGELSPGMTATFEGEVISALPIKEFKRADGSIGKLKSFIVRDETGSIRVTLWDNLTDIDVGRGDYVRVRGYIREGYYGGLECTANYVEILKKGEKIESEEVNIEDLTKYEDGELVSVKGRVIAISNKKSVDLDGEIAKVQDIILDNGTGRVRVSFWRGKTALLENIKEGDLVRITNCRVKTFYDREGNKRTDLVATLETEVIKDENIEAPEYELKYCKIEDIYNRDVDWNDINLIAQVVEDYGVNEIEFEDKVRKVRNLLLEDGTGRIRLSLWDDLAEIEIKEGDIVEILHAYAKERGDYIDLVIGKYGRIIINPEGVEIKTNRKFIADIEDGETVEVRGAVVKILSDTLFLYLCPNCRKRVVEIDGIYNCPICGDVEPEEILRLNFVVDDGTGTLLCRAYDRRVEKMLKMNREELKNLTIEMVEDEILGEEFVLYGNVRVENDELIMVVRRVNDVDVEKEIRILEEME

B1: KP_PALIN_cont (ssDNA)
DNA: CTCCTGGATCGACTTCAGTCCGCTGATGATTAGATGTCGTCCTGGATCGACTTCACTCCGCACCCGCTACCAACAACAGTACCC

Tests used:
[1] = tested on: AccuPrime Protein II (SsoSSB) (Sulfolobus solfataricus); settings: CITED Haseltine and Kowalczykowski 2002; about 3 orders of magnitude higher than AccuPrime protein I; cited from earlier work
[2] = target: T1, AccuPrime protein (AccuPrime Protein I; …); assay: EMSA; 20 nM oligo, 0-40 nM protein; near-stoichiometric shift, super-shift, weak negative cooperativity; 20 mM Tris-HCl pH 8.4, 50 mM KCl, 1.5 mM MgCl2, 70 C; text calls it 84-mer or 86-mer; settings: tags: expressed in E. coli BL21(DE3), Ni-NTA purified; label: 5'-32P
Description: Single stranded DNA binding. AccuPrime protein affinity for secondary structure of the single stranded DNA was tested with the 84 mer synthetic oligonucleotide KP_PALIN_cont: 5′-CTCCTGGATCGACTTCAGTCCGCTGATGATTAGATGTCGTCCTGGATCGACTTCACTCCGCACCCGCTACCAACAACAGTACCC-3′. The oligonucleotide was radiolabeled at the 5′ end in the same manner as the 5′ (ss) substrate for the exo-nuclease activity assay above with the oligonucleotide concentration at 5 μM.
Single stranded DNA binding. The binding affinity of AccuPrime protein to single stranded DNA (ssDNA) was measured using electrophoretic mobility shift assay (EMSA) on 6% horizontal polyacrylamide gel in TBE. The ssDNA molecules used in the assay were synthetic 86-mer oligonucleotides. The 5′ radiolabeled oligonucleotides were incubated with increasing amounts of the protein in 1×PCR buffer (20 mM Tris-HCl, pH 8.4, 50 mM KCl, 1.5 mM MgCl₂) at 70° C. for 5 min, and an aliquot of the reaction mix was loaded on the gel with currents on. The electrophoresis was continued for 1 hr and the gel was autoradiographed after dried.

Molecule | Kd [1] [nM] | binding result [2]
single-stranded DNA (unspecified) | 500 | –
B1 | – | binds
